The supplement of paper PMC7877785
± gives the uncertainty stated by the source.

Test: self-splicing fitness, log relative to wild type (ln ratio); higher = more splicing; Tetrahymena group I intron in knt gene, E. coli kanamycin selection, DiMSum; sequences stand for … in CUCUCU…GGAGGGAAAAGUUAUCAGGCAUGCACCUGGUAGCUAGUCUUUAAACCAAUAGAUUGCAUCGGUUUAAAAGGCAAGACCGUCAAAUUGCGGGAAAGGGGUCAACAGCCGUUCAGUACCAAGUCUCAGGGGAAACUUUGAGAUGGCCUUGCAAAGGGUAUGGUAAUAAGCUGACGGACAUGGUCCUAACCACGCAGCCAAGUCCUAAGUCAACAGAUCUUCUGUUGAUAUGGAUGCAGUUCACAGACUAAAUGUCGGUCGGGGAAGAUGUAUUCUUCUCAUAAGAUAUAGUCGGACCUCUCCUUAAUGGGAGCUAGCGGAUGAAGUGAUGCAACACUGGAGCCGCUGGGAACUAAUUUGUAUGCGAAAGUAUAUUGAUUAGUUUUGGAGUACUCGUGGUCG
Summary of the method: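 Colonies from six replicate transformations of E. coli BL21(DE3) were pooled and amplicon-sequenced on an Illumina HiSeq 2500. The library placed an intron with all eight P1ex-region nucleotides randomised inside the knt kanamycin-resistance gene on pET-22b(+), and cells grew overnight at 37°C or 30°C on LB agar with or without 25 μg/mL kanamycin (plus 100 μg/mL carbenicillin, 50 μM IPTG, 0.2% rhamnose). Fitness is the DiMSum error-weighted combination of wild-type-normalised replicate fold changes, kanamycin versus none.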

Sequence | self-splicing fitness (ln) (30 °C) | self-splicing fitness (ln) (37 °C)
CCUUAGCAAUAUUACGCGUC | -4.42 ± 0.39 | -2.91 ± 0.31
CCUUAGCAAUAUUACGCUCG | – | -1.73 ± 0.27
CCUUAGCAAUAUUACGGAAU | -3.53 ± 0.2 | -3.15 ± 0.3
CCUUAGCAAUAUUACGGACA | -2.53 ± 0.32 | –
CCUUAGCAAUAUUACGGUAU | -3.64 ± 0.33 | -2.67 ± 0.36
CCUUAGCAAUAUUACGGUCA | – | -3.63 ± 0.37
CCUUAGCAAUAUUACGGUCC | -3.5 ± 0.46 | -3.04 ± 0.35
CCUUAGCAAUAUUACGUAUG | -2.98 ± 0.19 | -0.234 ± 0.12
CCUUAGCAAUAUUACGUCCU | -2.36 ± 0.17 | -2.65 ± 0.38
CCUUAGCAAUAUUACGUGUA | -4.28 ± 0.43 | -1.47 ± 0.15
CCUUAGCAAUAUUACGUGUU | -4.69 ± 0.32 | -3.25 ± 0.21
CCUUAGCAAUAUUACGUUGG | -3.71 ± 0.21 | -3.32 ± 0.26
CGAAAGCAAUAUUACGAAGG | -1.05 ± 0.11 | -1.03 ± 0.16
CGAAAGCAAUAUUACGACAA | -1.13 ± 0.25 | -1.63 ± 0.18
CGAAAGCAAUAUUACGACAC | -2.69 ± 0.18 | -1.56 ± 0.26
CGAAAGCAAUAUUACGAGAC | – | -2.62 ± 0.24
CGAAAGCAAUAUUACGAGGG | -3.66 ± 0.14 | -2.17 ± 0.13
CGAAAGCAAUAUUACGAUAG | -0.598 ± 0.074 | 0.569 ± 0.1
CGAAAGCAAUAUUACGAUCC | -1.03 ± 0.16 | -0.798 ± 0.17
CGAAAGCAAUAUUACGAUGA | -0.9 ± 0.08 | -0.508 ± 0.088
CGAAAGCAAUAUUACGCAAC | -2.4 ± 0.18 | -2.39 ± 0.35
CGAAAGCAAUAUUACGCAAG | -1.44 ± 0.097 | -0.503 ± 0.12
CGAAAGCAAUAUUACGCAGA | -4.25 ± 0.42 | -0.12 ± 0.17
CGAAAGCAAUAUUACGCAGU | -3.8 ± 0.22 | -2.69 ± 0.17
CGAAAGCAAUAUUACGCCUC | – | -1.53 ± 0.32

Sequence | self-splicing fitness (ln) (30 °C) | self-splicing fitness (ln) (37 °C)
CGAAAGCAAUAUUACGCGUG | -1.16 ± 0.068 | 0.12 ± 0.079
CGAAAGCAAUAUUACGCUAU | -4.13 ± 0.36 | -2.4 ± 0.27
CGAAAGCAAUAUUACGCUCC | -1.14 ± 0.18 | -1.11 ± 0.21
CGAAAGCAAUAUUACGGAAU | -3.69 ± 0.29 | -2.15 ± 0.49
CGAAAGCAAUAUUACGGAUA | -2.86 ± 0.18 | -3 ± 0.19
CGAAAGCAAUAUUACGGGGC | -4.34 ± 0.32 | -1.98 ± 0.19
CGAAAGCAAUAUUACGUAGU | -3.2 ± 0.098 | -2.77 ± 0.13
CGAAAGCAAUAUUACGUCAC | – | -2.32 ± 0.32
CGAAAGCAAUAUUACGUCAU | -4.71 ± 0.36 | -0.631 ± 0.14
CGAAAGCAAUAUUACGUCCU | -0.837 ± 0.11 | -0.445 ± 0.13
CGAAAGCAAUAUUACGUCGA | -3.02 ± 0.17 | -1.51 ± 0.14
CGAAAGCAAUAUUACGUCGC | -3.03 ± 0.21 | -2.59 ± 0.23
CGAAAGCAAUAUUACGUGAG | -0.204 ± 0.048 | -0.102 ± 0.071
CGAAAGCAAUAUUACGUUGA | -3.72 ± 0.18 | -2.28 ± 0.16
CGAAAGCAAUAUUACGUUUA | -1.99 ± 0.13 | -1.83 ± 0.14
CGACAGCAAUAUUACGAGUC | -4.97 ± 0.36 | -2.42 ± 0.24
CGACAGCAAUAUUACGAUAA | -3.74 ± 0.28 | -1.27 ± 0.14
CGACAGCAAUAUUACGCAAA | -3.94 ± 0.31 | -3.08 ± 0.22
CGACAGCAAUAUUACGCAAC | -4.32 ± 0.31 | -2.61 ± 0.27
CGACAGCAAUAUUACGCAUU | -2.93 ± 0.15 | -2.03 ± 0.16
CGACAGCAAUAUUACGCCUA | -2.48 ± 0.19 | -1.01 ± 0.17
CGACAGCAAUAUUACGCUAA | -2.16 ± 0.19 | -1.57 ± 0.18
CGACAGCAAUAUUACGCUAC | – | -1.12 ± 0.28
CGACAGCAAUAUUACGGAAC | -3.4 ± 0.19 | -2.74 ± 0.23
CGACAGCAAUAUUACGGCCA | -1.16 ± 0.15 | -0.534 ± 0.18

Sequence | self-splicing fitness (ln) (30 °C) | self-splicing fitness (ln) (37 °C)
CGACAGCAAUAUUACGGGGA | -3.22 ± 0.15 | -2.35 ± 0.11
CGACAGCAAUAUUACGGUUC | -2.59 ± 0.1 | -2.24 ± 0.13
CGACAGCAAUAUUACGUAAU | -3.73 ± 0.16 | -2.34 ± 0.15
CGACAGCAAUAUUACGUAUA | -4.3 ± 0.47 | -1.54 ± 0.27
CGACAGCAAUAUUACGUCAC | -3.14 ± 0.14 | -2.19 ± 0.16
CGACAGCAAUAUUACGUGAG | -0.627 ± 0.052 | -0.333 ± 0.074
CGACAGCAAUAUUACGUGCC | -1.11 ± 0.12 | -0.684 ± 0.14
CGACAGCAAUAUUACGUGUA | -3 ± 0.14 | -1.59 ± 0.1
CGACAGCAAUAUUACGUUAG | -2.51 ± 0.097 | -0.772 ± 0.095
CGACAGCAAUAUUACGUUCU | -0.971 ± 0.05 | -0.0323 ± 0.07
CGACAGCAAUAUUACGUUGG | -2.92 ± 0.1 | -1.54 ± 0.1
CGAGAGCAAUAUUACGAAAC | -2.91 ± 0.36 | -1.97 ± 0.48
CGAGAGCAAUAUUACGAAUG | -2.96 ± 0.2 | -2.03 ± 0.21
CGAGAGCAAUAUUACGAUCG | -2.87 ± 0.43 | –
CGAGAGCAAUAUUACGCAUC | -3.04 ± 0.35 | -2.33 ± 0.35
CGAGAGCAAUAUUACGCAUG | -2.98 ± 0.12 | -2.02 ± 0.12
CGAGAGCAAUAUUACGCGUA | -3.31 ± 0.19 | -2.67 ± 0.29
CGAGAGCAAUAUUACGCUUG | -3.51 ± 0.33 | -3.14 ± 0.34
CGAGAGCAAUAUUACGGCUU | – | -3.05 ± 0.4
CGAGAGCAAUAUUACGGUAC | -3.63 ± 0.47 | -0.529 ± 0.28
CGAGAGCAAUAUUACGGUUG | -2.88 ± 0.14 | -1.21 ± 0.14
CGAGAGCAAUAUUACGUAAU | – | -2.01 ± 0.3
CGAGAGCAAUAUUACGUACC | -3.27 ± 0.38 | -1.7 ± 0.41
CGAGAGCAAUAUUACGUGCG | -3.43 ± 0.29 | -1.8 ± 0.2
CGAGAGCAAUAUUACGUGGC | -4.31 ± 0.46 | -2.55 ± 0.26

Sequence | self-splicing fitness (ln) (30 °C) | self-splicing fitness (ln) (37 °C)
CGAGAGCAAUAUUACGUGUU | -3.83 ± 0.25 | -3.71 ± 0.46
CGAUAGCAAUAUUACGAACG | -0.892 ± 0.11 | 0.0703 ± 0.12
CGAUAGCAAUAUUACGAAGC | – | -1.1 ± 0.4
CGAUAGCAAUAUUACGAAUA | -0.837 ± 0.46 | -1.47 ± 0.46
CGAUAGCAAUAUUACGAAUC | -3.74 ± 0.22 | -3.08 ± 0.28
CGAUAGCAAUAUUACGAGCA | -3.83 ± 0.26 | -1.86 ± 0.17
CGAUAGCAAUAUUACGAGCC | -2.23 ± 0.28 | -2.61 ± 0.44
CGAUAGCAAUAUUACGAGGC | -3.66 ± 0.35 | -1.95 ± 0.48
CGAUAGCAAUAUUACGAGUC | -2.74 ± 0.19 | -3.73 ± 0.39
CGAUAGCAAUAUUACGCAAC | -3.83 ± 0.4 | -2.49 ± 0.3
CGAUAGCAAUAUUACGCACU | -1.12 ± 0.14 | 0.174 ± 0.14
CGAUAGCAAUAUUACGCCUU | -2.23 ± 0.17 | -2.24 ± 0.17
CGAUAGCAAUAUUACGCGAA | -2.95 ± 0.21 | -1.92 ± 0.21
CGAUAGCAAUAUUACGCGAG | -3.16 ± 0.26 | -2.42 ± 0.2
CGAUAGCAAUAUUACGCUAA | – | -0.607 ± 0.26
CGAUAGCAAUAUUACGCUAG | -1.18 ± 0.1 | -1.52 ± 0.19
CGAUAGCAAUAUUACGCUGA | -2.46 ± 0.17 | -1.59 ± 0.16
CGAUAGCAAUAUUACGGAGG | -1.28 ± 0.14 | -1.17 ± 0.15
CGAUAGCAAUAUUACGGAUG | -0.777 ± 0.058 | 0.18 ± 0.07
CGAUAGCAAUAUUACGGCGA | -1.5 ± 0.25 | -1.11 ± 0.16
CGAUAGCAAUAUUACGGGAU | -4.23 ± 0.31 | -2.86 ± 0.27
CGAUAGCAAUAUUACGGGUC | -4.07 ± 0.46 | -2.46 ± 0.3
CGAUAGCAAUAUUACGGUCU | -0.529 ± 0.072 | 0.511 ± 0.097
CGAUAGCAAUAUUACGGUGU | -2.7 ± 0.11 | -1.06 ± 0.095
